The values that follow come from PMC6175992, “Telomeric Repeat-Binding Factor Homologs in Entamoeba histolytica: New Clues for Telomeric Research”.

The series addresses T1, rEhTRF-like I (Entamoeba histolytica, UniProt C4M1I9 1-404).
T1 sequence: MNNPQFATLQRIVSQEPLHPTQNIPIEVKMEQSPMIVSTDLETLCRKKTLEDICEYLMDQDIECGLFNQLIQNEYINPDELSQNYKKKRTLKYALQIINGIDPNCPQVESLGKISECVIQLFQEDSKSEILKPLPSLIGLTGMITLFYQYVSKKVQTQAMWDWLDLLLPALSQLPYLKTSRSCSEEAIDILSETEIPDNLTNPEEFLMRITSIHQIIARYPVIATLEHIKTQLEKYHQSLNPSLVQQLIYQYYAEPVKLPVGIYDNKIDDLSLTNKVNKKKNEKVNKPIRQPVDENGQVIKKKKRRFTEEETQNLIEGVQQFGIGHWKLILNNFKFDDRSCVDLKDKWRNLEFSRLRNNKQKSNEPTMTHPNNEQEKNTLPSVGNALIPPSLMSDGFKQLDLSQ
The series is described as follows: EMSA; competed by unlabeled HsTEL and EhTEL; 12 mM HEPES pH 7.9, 60 mM KCl, 5 mM MgCl2, 1 mM EDTA, 4 mM Tris-HCl, 5 mM DTT, 10% glycerol, 4 mM spermidine, 4 mM MgCl (so in the source), 50 ng poly dI-dC, protease inhibitors; 20 min at 4 C; 106.86 uM rEhTRF-like I or 10 ug nuclear extract, 1 ng probe. The conditions noted are these: protein: recombinant; tags: His tag (pCold I); label: 32P; 5' overhangs on both strands. (Mobility shift assays separate free from complexed probe on a gel.)

B1: EhTEL (dsDNA)
DNA 1: GCTCTATTAGTATTTTAGTATTTTAGTATTTTAGTATT
DNA 2: CATCTAGAGCAATACTAAAATACTAAAATACTAAAATACTAA
B1: the binding result is “binds”.

B2: HsTEL (dsDNA)
DNA 1: GCTCTAGGGTTAGGGTTAGGGTTAGGGTTA
DNA 2: CATCTACCCTAACCCTAACCCTAACCCTAA
Consider B2, for which the binding result was “binds”.
